Test results as given in the Human Domainome abundance scans (Beltran et al. 2025).

B1: E3 ubiquitin-protein ligase NEDD4, residues 836 to 881; numbered along this chain, P46934 (parent)
chain: EIEQGFLPKGWEVRHAPNGRPFFIDHNTKTTTWEDPRLKIPAHLRG
B2: POU domain, class 2, transcription factor 1, residues 285 to 354; numbered along this chain, P14859 (parent)
chain: LEELEQFAKTFKQRRIKLGFTQGDVGLAMGKLYGNDFSQTTISRFEALNLSFKNMCKLKPLLEKWLNDAE

Variants of: B1
Experiment: abundance fitness (aPCA) (normalised: wild type 0, dead -1); higher = more abundant; growth selection in yeast, the domain comes from the species named
Settings: Homo sapiens

Abundance fitness: each site, then its substitutions
E34: K -0.369; L -0.155
V13: L -0.122; K -0.032; Q -0.135; M 0.05
H15: P -0.507; A -0.095; L -0.013; N -0.113

Variants of: B2
Experiment: as above
Settings: Homo sapiens

Abundance fitness of substitutions, site by site:
E5: M -0.028; P -0.571; D -0.072; N -0.059; A -0.022; F -0.13; C -0.114; I -0.1; H -0.116; S -0.039; Y -0.071; L -0.022; G -0.019; T -0.004; K -0.017; Q -0.125; R -0.034
L4: V -0.145; F -0.483; S -0.263; M -0.022
L1: Y 0.13; E -0.124; W -0.02; K 0.001; I -0.003; D -0.145; C -0.065; F 0.007; R 0.142; M 0.073; S -0.055; N -0.074; V -0.026; A -0.201
F7: W 0.123; A -0.355; R -0.437; M -0.263; C -0.011; I -0.298; S -0.324; V 0.191; G -0.07; L -0.297
K9: R 0.011
A8: M -0.205; V 0.01; D -0.968; I -0.008; S -0.082; N -0.625; L -0.252; P -0.447; Q -0.283; C -0.05; F -0.602; H -0.499; W -0.528; T 0.004; K -0.72; R -0.154
K12: C -0.041; N -0.107; A 0.006; L -0.156; M -0.062; E -0.046; F -0.307; H -0.084; I -0.007; G -0.146
F11: K -1.09; Q -1.11; A -0.166; V -0.239; Y -0.238; E -1.12; P -1.04; L -0.147; R -0.955; M -0.166; W -0.105; I -0.402; C -0.11; N -1.09; S -0.206; D -1.19; G -0.848
T10: C -0.041; V -0.059; Y -0.063; E 0.04; D -0.08; H 0.019; I 0.01; Q -0.012; P -0.945; R -0.038; L -0.013; F 0.023; M -0.052; N 0.004; K -0.014; S -0.027; G -0.047
Q6: G -0.012; Y -0.03; T 0.025; F -0.059; V -0.076; I -0.009; N 0.074; M -0.038; E 0.034; K 0.034; W -0.058; L -0.031; P -0.245; D -0.086; S -0.017; H -0.001; A 0.015
E3: F -0.159; G -0.201; A -0.143; Y -0.186; I -0.117; T -0.146; K -0.137; M -0.089; Q -0.078; C -0.202; P -0.569; V -0.118; S -0.105; W -0.305; N -0.07; R -0.207; H -0.036
E2: T -0.158; D -0.013; I -0.029; C -0.152; M -0.012; K 0.053; V -0.067; Y -0.046; H -0.175; P -0.178; F -0.009; N 0.109; Q -0.043; G -0.303; R -0.013; S -0.057; W -0.043
